Data from US20210246191A1 (BIONTECH, published 2021).
Changes are numbered by the printed parent chain. Bridge positions count the residues as written; N and C are the ends. Ends that are not written are not given here.

What was measured:
[1] = molecular target: FN-67B89 (recombinant human fibronectin EDB flanked by its surrounding type III domains, C-terminal hexahistidine tag) (human) (UniProt P02751); experiment: SPR, biotinylated FN-67B89 on streptavidin sensor, 50-4000 nM, 1:1 Langmuir fit
[2] = molecular target: FN-67B89 (recombinant human fibronectin EDB flanked by its surrounding type III domains, C-terminal hexahistidine tag) (human) (UniProt P02751); experiment: SPR, biotinylated FN-67B89 on streptavidin sensor, 1.25-10 nM, 1:1 Langmuir fit
[3] = molecular target: FN-67B89 (recombinant human fibronectin EDB flanked by its surrounding type III domains, C-terminal hexahistidine tag) (human) (UniProt P02751); experiment: SPR, biotinylated FN-67B89 on streptavidin sensor, 62.5-4000 nM, 1:1 Langmuir fit
[4] = molecular target: T1, bovine serum albumin (bovine, UniProt P02769 25-607); experiment: ELISA, 200 nM Trx-miniprotein on coated protein (1 µg/well), duplicates
T1 construct: Control protein coated in ELISA; also called BSA
T1 sequence (P02769 25-607 limits assumed): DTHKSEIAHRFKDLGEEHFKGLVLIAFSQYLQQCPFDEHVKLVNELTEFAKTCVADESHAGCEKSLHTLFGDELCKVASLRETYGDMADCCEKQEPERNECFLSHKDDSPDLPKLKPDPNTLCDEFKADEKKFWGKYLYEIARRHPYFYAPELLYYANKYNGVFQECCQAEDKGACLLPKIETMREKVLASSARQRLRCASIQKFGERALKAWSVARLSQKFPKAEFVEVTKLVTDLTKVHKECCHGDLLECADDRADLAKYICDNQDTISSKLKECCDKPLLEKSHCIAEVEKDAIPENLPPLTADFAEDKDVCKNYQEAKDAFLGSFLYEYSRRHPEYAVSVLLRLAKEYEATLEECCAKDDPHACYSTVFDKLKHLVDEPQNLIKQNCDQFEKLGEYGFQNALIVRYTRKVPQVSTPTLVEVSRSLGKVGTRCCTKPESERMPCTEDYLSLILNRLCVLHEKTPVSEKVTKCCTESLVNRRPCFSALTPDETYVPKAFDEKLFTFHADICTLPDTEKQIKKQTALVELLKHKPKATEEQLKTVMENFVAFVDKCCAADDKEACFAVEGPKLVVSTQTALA
Protocol: FIG. 5: Extended specificity analysis of Trx-cystine-knot miniprotein clones MCopt 1.0-2/-3 and MCopt 2.0-1/-2/3. […] ELISA was performed in duplicates, error bars represent standard deviation and Trx-MC-Myc-010 served as negative cystine-knot miniprotein control.
(§1) ELISA was used as technique to analyze protein-protein interactions. Cavities of 96-well microtiter plates (Nunc MaxiSorp™, Thermo Fisher Scientific) were coated with 1 μg FN-B, bovine serum albumin (BSA, Eurobio), milk powder, streptavidin (Sigma Aldrich), T7-His-TEV-B (LD BioPharma), FN-B(8-14) (R&D Systems), lysozyme, ovalbumin (GE Healthcare Life Science), aldolase (GE Healthcare Life Science) or 0.6 μg anti-c-myc-antibody (M4439, Sigma) overnight at 4° C. The wells were washed three times with PBS-T (1×PBS with 0.1% (w/v) Tween-20), blocked with 1× Casein buffer (Sigma Aldrich) diluted in PBS for 2 h at RT and washed again as described. […] After three times of washing with PBS-T, binding of the respective variant was detected with a horseradish peroxidase (HRP)-conjugated anti-S-tag antibody (ab18589 or ab19324, Abeam). Enzymatic reaction was measured with TMB as a chromogenic substrate and stopped with 0.2 M HCl after approximately 5 min. The measurement of absorbance at 450 nm was performed using an Infinite M200 PRO Microplate Reader (Tecan).

[5] = molecular target: T2, FN-B(8-14) (R&D Systems), EDB with C-terminal domains 8-13 and 1/2 of domain 14 (UniProt P02751 1265-1908); experiment: ELISA titration of Trx-miniprotein on coated protein (1 µg/well), HRP anti-S-tag antibody, single values [continued), panel MCopt 1.0-3]
T2 construct: domain: EDB with C-terminal domains 8-13 and 1/2 of domain 14; Bought
T2 sequence (P02751 1265-1908 limits assumed): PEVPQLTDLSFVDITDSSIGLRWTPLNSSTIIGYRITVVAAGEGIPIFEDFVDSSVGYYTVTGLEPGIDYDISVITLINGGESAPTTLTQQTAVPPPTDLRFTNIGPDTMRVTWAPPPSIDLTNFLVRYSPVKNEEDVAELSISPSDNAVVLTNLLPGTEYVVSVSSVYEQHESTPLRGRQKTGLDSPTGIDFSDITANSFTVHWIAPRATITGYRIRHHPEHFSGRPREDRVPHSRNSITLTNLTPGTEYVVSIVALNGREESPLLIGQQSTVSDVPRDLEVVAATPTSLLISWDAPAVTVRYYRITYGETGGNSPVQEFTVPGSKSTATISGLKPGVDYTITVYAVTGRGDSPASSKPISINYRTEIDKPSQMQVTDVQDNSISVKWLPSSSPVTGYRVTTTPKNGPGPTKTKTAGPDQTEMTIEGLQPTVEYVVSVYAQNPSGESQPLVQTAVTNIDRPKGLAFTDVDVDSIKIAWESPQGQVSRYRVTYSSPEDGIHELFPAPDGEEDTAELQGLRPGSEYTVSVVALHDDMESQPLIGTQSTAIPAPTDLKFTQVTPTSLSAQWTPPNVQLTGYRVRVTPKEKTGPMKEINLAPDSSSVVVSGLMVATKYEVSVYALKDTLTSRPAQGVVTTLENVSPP
Protocol: (§2) FIG. 6: Saturation-binding curves of MCopt 1.0-2/-3 and MCopt 2.0-1/-2/-3 EDB binding. […] Binding of Trx-cystine-knot miniproteins was detected with an HRP-conjugated anti-s-tag-antibody. ELISAs were performed in duplicates (single values for FN-B(8-14)).
as §1

[6] = molecular target: T3, FN-B (recombinant human fibronectin EDB as a single domain, C-terminal hexahistidine tag) (human, UniProt P02751 1266-1356, Biotinylated on primary amines only for the phage screening; coated unmodified in the ELISAs); experiment: ELISA titration of Trx-miniprotein on coated protein (1 µg/well), HRP anti-S-tag antibody, duplicates [continued), panel MCopt 1.0-3]
T3 construct: Made in E. coli (pET-21a); Residue numbers count on isoform 7 of P02751; Biotinylated on primary amines for the phage screening; also called Fibronectin Extra Domain B; single domain FN-B
T3 sequence (P02751 other isoform, or with tags, fused parts or gaps limits assumed): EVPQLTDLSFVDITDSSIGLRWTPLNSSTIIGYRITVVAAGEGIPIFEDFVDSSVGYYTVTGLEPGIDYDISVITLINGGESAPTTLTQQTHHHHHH
Protocol: as §2, §1

[7] = molecular target: FN-67B89 (recombinant human fibronectin EDB flanked by its surrounding type III domains, C-terminal hexahistidine tag) (human) (UniProt P02751); experiment: as above
[8] = molecular target: FN-67B89 (recombinant human fibronectin EDB flanked by its surrounding type III domains, C-terminal hexahistidine tag) (human) (UniProt P02751); experiment: SPR single cycle kinetics, biotinylated FN-67B89 on streptavidin chip, 1.25-10 nM, 1:1 Langmuir fit
[9] = molecular target: T3, FN-B (recombinant human fibronectin EDB …); experiment: ELISA, Trx fusion 50 to 1.563 nM on coated FN-B, HRP anti-S-tag antibody; relative binding from apparent binding constants against parental MC-FN-010, three assays
[10] = molecular target: T4, FN-6789 (recombinant human fibronectin type III domains 6-9 without EDB, C-terminal hexahistidine tag) (human, UniProt P02751-1 1085-1446, limits assumed); experiment: ELISA, 1.56 to 50 nM Trx-miniprotein on 1 µg coated protein per well, 50 ng HRP anti-S-tag antibody, duplicates
T4 construct: domain: domains 6-9 without EDB; Control protein
T4 sequence (P02751 other isoform, or with tags, fused parts or gaps limits assumed): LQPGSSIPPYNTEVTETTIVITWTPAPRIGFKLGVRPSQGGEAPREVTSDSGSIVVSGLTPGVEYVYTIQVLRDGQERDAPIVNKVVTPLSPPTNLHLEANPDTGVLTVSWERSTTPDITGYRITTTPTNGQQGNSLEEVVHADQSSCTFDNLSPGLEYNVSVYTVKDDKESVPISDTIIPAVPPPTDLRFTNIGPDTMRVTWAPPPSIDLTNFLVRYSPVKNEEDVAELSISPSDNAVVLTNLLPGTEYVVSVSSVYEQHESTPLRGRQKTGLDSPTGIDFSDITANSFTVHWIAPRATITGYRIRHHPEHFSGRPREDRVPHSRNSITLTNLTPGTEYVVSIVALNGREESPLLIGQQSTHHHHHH

B1: MC-FN-010 (tag-free cystine-knot miniprotein) (designed binder)
chain: PMCTQRKNRIRLCRRDSDCTGACICRGNGYCG
modifications: disulfide 13-25; disulfide (positions not given here); not fully specified (bridges)
[1]
  Kd: 1580 nM
  koff: 0.0783 s⁻¹
  kon: 49500 M⁻¹ s⁻¹

## PMCTQRANRIRLCRRDSDCTGACICRGNGYCG (designed binder, ends and bridges not checked; also: trimer, DOTA on trimer, site not given here) [DOTA-(MC-FN-016)3 (unlabeled trimeric probe)]
[2]
  Kd: 0.624 nM
  koff: 0.00226 s⁻¹
  kon: 3.73e+06 M⁻¹ s⁻¹

B2: MC-FN-016 (tag-free cystine-knot miniprotein) (designed binder)
chain: B1 chain with K7A
modifications: disulfide 13-25; disulfide (positions not given here); not fully specified (bridges)
[3]
  Kd: 1410 nM
  koff: 0.187 s⁻¹
  kon: 133000 M⁻¹ s⁻¹

B3: Trx-MC-FN-010 (thioredoxin fusion of cystine-knot miniprotein MC-FN-010) (designed binder)
chain: B1 chain
modifications: not fully specified; cysteine pairing not given here; also: fused to E. coli thioredoxin with His6-tag, S-tag and thrombin site
notes: also called Trx-MCopt 1.0-3; MCopt 1.0-3; not shown: E. coli thioredoxin-A, fusion partner from vector pET-32-LibEx; H6-tag, s-tag and thrombin cleavage site of pET-32-LibEx
[4]
  binding result: no binding (tested: 200 nM)
[5]
  EC50 (read off the curve): ~10 nM
[6]
  EC50 (read off the curve): ~4 nM
[7]
  EC50 (read off the curve): 10 nM

B4: AF680-(MC-FN-010)3 (trimeric MC-FN-010 conjugated with Alexa Fluor 680) (designed binder)
peptide: B1 chain
modifications: ends and bridges not checked; also: trimer via oxime ligation, Alexa Fluor 680 label
[8]
  Kd: 0.431 nM
  koff: 0.00347 s⁻¹
  kon: 8.04e+06 M⁻¹ s⁻¹

B5: AF680-(MC-FN-016)3 (trimeric MC-FN-016 conjugated with Alexa Fluor 680) (designed binder)
peptide: B1 chain with K7A
modifications: ends and bridges not checked; also: trimer via oxime ligation, Alexa Fluor 680 label
[8]
  Kd: 0.902 nM
  koff: 0.00231 s⁻¹
  kon: 2.56e+06 M⁻¹ s⁻¹

B6: Trx-MC-FN-0110 (designed binder, not shown: large carriers; small tags and cut ends)
chain: B1 chain with R11A
modifications: disulfide 13-25, 19-31, 3-23; also: N-terminal thioredoxin fusion carrier (Trx, H6-tag, S-tag, thrombin site), no letters given
notes: alanine scan variant of MC-FN-010
[9]
  binding result: no binding (tested: 50 nM)

B7: Trx-MC-FN-018 (designed binder, not shown: large carriers; small tags and cut ends)
chain: B1 chain with R9A
modifications: disulfide 13-25, 19-31, 3-23; also: N-terminal thioredoxin fusion carrier (Trx, H6-tag, S-tag, thrombin site), no letters given
notes: as for B6
[9]
  binding result: no binding (tested: 50 nM)

B8: Trx-MC-FN-019 (designed binder, not shown: large carriers; small tags and cut ends)
chain: B1 chain with I10A
modifications: disulfide 13-25, 19-31, 3-23; also: N-terminal thioredoxin fusion carrier (Trx, H6-tag, S-tag, thrombin site), no letters given
notes: as for B6
[9]
  binding result: no binding (tested: 50 nM)

B9: Trx-MC-FN-016 (thioredoxin fusion of cystine-knot miniprotein MC-FN-016) (designed binder)
chain: B1 chain with K7A
modifications: not fully specified (N-terminus, bridges); cysteine pairing not given here; also: N-terminal thioredoxin fusion carrier (Trx, H6-tag, S-tag, thrombin site), no letters given
notes: not shown: E. coli thioredoxin-A, fusion partner from vector pET-32-LibEx; H6-tag, s-tag and thrombin cleavage site of pET-32-LibEx
[10]
  binding result: no binding (tested: 50 nM)

B10: Trx-MC-FN-0114 (designed binder)
peptide: B1 chain with R26A
modifications: disulfide 13-25, 19-31, 3-23; also: N-terminal thioredoxin fusion carrier (Trx, H6-tag, S-tag, thrombin site), no letters given
notes: alanine scan variant of MC-FN-010; not shown: N-terminal carrier from vector pET-32-LibEx (E. coli thioredoxin-A, H6-tag, S-tag, thrombin site and their linkers)
[9]
  binding result: no binding (tested: 50 nM)

B11: Trx-MC-FN-0111 (designed binder, not shown: large carriers; small tags and cut ends)
chain: B1 chain with L12A
modifications: disulfide 13-25, 19-31, 3-23; also: N-terminal thioredoxin fusion carrier (Trx, H6-tag, S-tag, thrombin site), no letters given
notes: as for B6
[9]
  binding result: no binding (tested: 50 nM)
